Earlier results on one sequence are cited in PMC10499909.

By Kd is commonly meant the free concentration of one partner at which half of the binding sites on the other are occupied at equilibrium, for simple one-to-one binding.

For this series, the target named is lactoferrin (species not stated, cited Kd) (UniProt P02788). The following applies: PBS pH 6.8, 37 °C, 30 min in dark; CDs-aptamer 0.05 mg/mL with graphene oxide nanosheets.
lactoferrin (species not stated, cited Kd), sequence (P02788 20-710): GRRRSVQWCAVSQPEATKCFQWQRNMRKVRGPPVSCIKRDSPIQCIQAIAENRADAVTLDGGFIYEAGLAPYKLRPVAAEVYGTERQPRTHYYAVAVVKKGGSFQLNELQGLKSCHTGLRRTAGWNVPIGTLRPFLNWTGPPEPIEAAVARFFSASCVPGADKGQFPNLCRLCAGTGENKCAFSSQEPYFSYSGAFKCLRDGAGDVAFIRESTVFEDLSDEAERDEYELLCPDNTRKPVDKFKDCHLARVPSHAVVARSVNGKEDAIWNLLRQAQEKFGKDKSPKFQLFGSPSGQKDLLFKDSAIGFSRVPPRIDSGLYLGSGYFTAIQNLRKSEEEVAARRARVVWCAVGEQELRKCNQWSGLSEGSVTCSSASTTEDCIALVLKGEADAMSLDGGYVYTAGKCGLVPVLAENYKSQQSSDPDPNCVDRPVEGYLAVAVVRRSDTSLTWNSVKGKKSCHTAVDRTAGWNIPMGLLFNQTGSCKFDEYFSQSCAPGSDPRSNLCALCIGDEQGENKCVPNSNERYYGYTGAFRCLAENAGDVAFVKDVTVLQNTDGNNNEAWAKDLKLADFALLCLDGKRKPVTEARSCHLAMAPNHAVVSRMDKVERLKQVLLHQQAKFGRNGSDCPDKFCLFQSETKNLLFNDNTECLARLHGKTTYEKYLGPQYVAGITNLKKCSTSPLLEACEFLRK

Regarding “AGGCAGGACACCGTAACCGGTGCATCTATGGCTACTAGCTCTTCCTGCCT [LF aptamer]”, the Kd was 4.97 nM.
